The series has as its target T1, Pfu DNA polymerase (Pyrococcus furiosus, UniProt P61875 SEQ:1-775).
T1 sequence: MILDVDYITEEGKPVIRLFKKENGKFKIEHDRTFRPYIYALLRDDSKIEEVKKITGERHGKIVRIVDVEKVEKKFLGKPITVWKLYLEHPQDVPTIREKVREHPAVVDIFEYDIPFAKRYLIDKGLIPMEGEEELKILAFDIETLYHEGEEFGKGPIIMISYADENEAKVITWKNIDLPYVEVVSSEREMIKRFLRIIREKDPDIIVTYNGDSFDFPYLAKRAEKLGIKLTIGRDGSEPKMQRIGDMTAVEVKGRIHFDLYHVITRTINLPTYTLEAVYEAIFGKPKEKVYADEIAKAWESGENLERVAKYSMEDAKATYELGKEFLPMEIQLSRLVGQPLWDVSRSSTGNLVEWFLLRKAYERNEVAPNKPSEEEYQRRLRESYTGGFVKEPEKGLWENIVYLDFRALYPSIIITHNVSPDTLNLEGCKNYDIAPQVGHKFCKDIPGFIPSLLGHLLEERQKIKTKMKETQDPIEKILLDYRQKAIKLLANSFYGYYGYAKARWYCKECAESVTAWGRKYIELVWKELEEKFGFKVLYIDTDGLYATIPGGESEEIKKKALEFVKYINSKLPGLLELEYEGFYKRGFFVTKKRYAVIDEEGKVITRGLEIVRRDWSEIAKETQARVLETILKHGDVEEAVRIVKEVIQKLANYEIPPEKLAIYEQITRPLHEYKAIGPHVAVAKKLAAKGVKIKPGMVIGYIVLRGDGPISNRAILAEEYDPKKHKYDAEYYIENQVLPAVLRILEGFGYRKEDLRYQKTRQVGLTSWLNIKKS
The series is described as follows: 3'-5' exonuclease fluorescence assay, 65 C; high exonuclease activity. The conditions noted are these: tags: Stratagene (commercial); label: 5'-FAM, 3'-dabcyl; hairpin, 16 bp stem with 3' T:T* mismatch and 5' unpaired poly-T. How it is done: The oligonucleotide was combined with buffer and the enzyme and incubated in a real time detection instrument, the DNA Engine Opticon System (MJ Research, Inc.). This instrument excites the FAM and detects any fluorescence if present. In the absence of 3′ to 5′ exonuclease activity, there is only background fluorescence because FAM is quenched by DAB. However if the enzyme does have 3′ to 5′ exonuclease activity, the T:T* mismatch is recognized and the 3′-T* is removed. The DAB is released and will no longer quench the FAM fluorescence. The Opticon System will detect the increase in fluorescence with increasing time (readings were taken every 10 sec at 65° C.). The rate of fluorescence increase directly reflects the amount of 3′ to 5′ exonuclease activity. […] The results (FIG. 3) of this analysis are discussed below.

TTTTTTGAGGTGTGTCCTACACAGCGGAGTGTAGGACACACCTCT (structured_DNA, 3' terminal T is amino-link dT carrying dabcyl) [FAM/dabcyl hairpin exonuclease substrate]: the binding result is “binds”.

The values are drawn from US20040219558, “Novel compositions with polymerase activity” (MJ Bioworks Incorporated, published 2004).
